Source: patent US20250352661A1 (MYTHIC THERAPEUTICS, published 2025)
Residue numbers refer to the chain shown, from its start. Names and notes keep the numbering of the source.

B1: MYT7926 (antibody, V domains shown)
VH: QQQLVESGGGLVKPGASLTLTCKASGFSFSGSYWICWVRQAPGKGLEWIGCINGGSLDITYYASWAKGRFTISKASSTTVTLQKTSLTAADTATYFCASDTSYTAYGNFYFNLWGPGTLVTVSS
VL: AQVLTQTASPVSAAVGGTVTINCHSSQSVLNNNWLAWYQQKPGQPPKLLIYDASSLASGVPSRFKGSGSGTQFTLTISDLESDDAATYYCQGEFSCGSADCNAFGGGTEVVVKG
notes: tested as culture supernatant; also called 24D9 VL Q24H
B2: MYT7929 (antibody, V domains shown)
VH: B1 VH
VL: B1 VL with H24Q, Q27H
notes: tested as culture supernatant; also called 24D9 VL Q27H
B3: MYT7927 (antibody, V domains shown)
VH: B1 VH
VL: B1 VL with H24Q, S25H
notes: tested as culture supernatant; also called 24D9 VL S25H
B4: MYT7930 (antibody, V domains shown)
VH: B1 VH
VL: B1 VL with H24Q, S28H
notes: tested as culture supernatant; also called 24D9 VL S28H
B5: MYT7933 (antibody, V domains shown)
VH: B1 VH
VL: B1 VL with H24Q, N31H
notes: also called 24D9 VL N31H
B6: MYT7928 (antibody, V domains shown)
VH: B1 VH
VL: B1 VL with H24Q, S26H
notes: tested as culture supernatant; also called 24D9 VL S26H
B7: MYT7934 (antibody, V domains shown)
VH: B1 VH
VL: B1 VL with H24Q, N32H
notes: tested as culture supernatant; also called 24D9 VL N32H
B8: MYT7931 (antibody, V domains shown)
VH: B1 VH
VL: B1 VL with H24Q, V29H
notes: tested as culture supernatant; also called 24D9 VL V29H
B9: MYT7932 (antibody, V domains shown)
VH: B1 VH
VL: B1 VL with H24Q, L30H
notes: tested as culture supernatant; also called 24D9 VL L30H
B10: MYT5742 (antibody, V domains shown)
VH: B1 VH
VL: B1 VL with H24Q
notes: Parent of the rabbit 24D9 scan; chimeric, rabbit variable domains with human constant regions; also called 24D9; chimeric 24D9 RabMAb
B11: MYT7881 (antibody, V domains shown)
VH: B1 VH with G26H
VL: B1 VL with H24Q
notes: rabbit 24D9 VH G26H; chimeric, human constant regions
B12: MYT7897 (antibody, V domains shown)
VH: B1 VH with S56H
VL: B1 VL with H24Q
notes: rabbit 24D9 VH S56H; chimeric, human constant regions
B13: MYT7892 (antibody, V domains shown)
VH: B1 VH with C36S, C51H
VL: B1 VL with H24Q
notes: rabbit 24D9 VH C51H; chimeric, human constant regions
B14: MYT7882 (antibody, V domains shown)
VH: B1 VH with F27H
VL: B1 VL with H24Q
notes: rabbit 24D9 VH F27H; chimeric, human constant regions
B15: MYT7888 (antibody, V domains shown)
VH: B1 VH with Y33H
VL: B1 VL with H24Q
notes: rabbit 24D9 VH Y33H; chimeric, human constant regions
B16: MYT7910 (antibody, V domains shown)
VH: B1 VH with A98H
VL: B1 VL with H24Q
notes: rabbit 24D9 VH A98H; chimeric, human constant regions
B17: MYT7884 (antibody, V domains shown)
VH: B1 VH with F29H
VL: B1 VL with H24Q
notes: rabbit 24D9 VH F29H; chimeric, human constant regions
B18: MYT7900 (antibody, V domains shown)
VH: B1 VH with I59H
VL: B1 VL with H24Q
notes: rabbit 24D9 VH I59H; chimeric, human constant regions
B19: MYT7902 (antibody, V domains shown)
VH: B1 VH with Y61H
VL: B1 VL with H24Q
notes: rabbit 24D9 VH Y61H; chimeric, human constant regions
B20: MYT7905 (antibody, V domains shown)
VH: B1 VH with S64H
VL: B1 VL with H24Q
notes: rabbit 24D9 VH S64H; chimeric, human constant regions
B21: MYT7886 (antibody, V domains shown)
VH: B1 VH with G31H
VL: B1 VL with H24Q
notes: rabbit 24D9 VH G31H; chimeric, human constant regions
B22: MYT7909 (antibody, V domains shown)
VH: B1 VH with G68H
VL: B1 VL with H24Q
notes: rabbit 24D9 VH G68H; chimeric, human constant regions
B23: MYT7890 (antibody, V domains shown)
VH: B1 VH with I35H
VL: B1 VL with H24Q
notes: rabbit 24D9 VH I35H; chimeric, human constant regions
B24: MYT7899 (antibody, V domains shown)
VH: B1 VH with D58H
VL: B1 VL with H24Q
notes: rabbit 24D9 VH D58H; chimeric, human constant regions
B25: MYT7908 (antibody, V domains shown)
VH: B1 VH with K67H
VL: B1 VL with H24Q
notes: rabbit 24D9 VH K67H; chimeric, human constant regions
B26: MYT7889 (antibody, V domains shown)
VH: B1 VH with W34H
VL: B1 VL with H24Q
notes: rabbit 24D9 VH W34H; chimeric, human constant regions
B27: MYT7887 (antibody, V domains shown)
VH: B1 VH with S32H
VL: B1 VL with H24Q
notes: rabbit 24D9 VH S32H; chimeric, human constant regions
B28: MYT7898 (antibody, V domains shown)
VH: B1 VH with L57H
VL: B1 VL with H24Q
notes: rabbit 24D9 VH L57H; chimeric, human constant regions
B29: MYT7907 (antibody, V domains shown)
VH: B1 VH with A66H
VL: B1 VL with H24Q
notes: rabbit 24D9 VH A66H; chimeric, human constant regions
B30: MYT7911 (antibody, V domains shown)
VH: B1 VH with S99H
VL: B1 VL with H24Q
notes: rabbit 24D9 VH S99H; chimeric, human constant regions
B31: MYT7903 (antibody, V domains shown)
VH: B1 VH with Y62H
VL: B1 VL with H24Q
notes: rabbit 24D9 VH Y62H; chimeric, human constant regions
B32: MYT7885 (antibody, V domains shown)
VH: B1 VH with S30H
VL: B1 VL with H24Q
notes: rabbit 24D9 VH S30H; chimeric, human constant regions
B33: MYT7883 (antibody, V domains shown)
VH: B1 VH with S28H
VL: B1 VL with H24Q
notes: rabbit 24D9 VH S28H; chimeric, human constant regions
B34: MYT7901 (antibody, V domains shown)
VH: B1 VH with T60H
VL: B1 VL with H24Q
notes: rabbit 24D9 VH T60H; chimeric, human constant regions
B35: MYT7893 (antibody, V domains shown)
VH: B1 VH with I52H
VL: B1 VL with H24Q
notes: rabbit 24D9 VH I52H; chimeric, human constant regions
B36: MYT7896 (antibody, V domains shown)
VH: B1 VH with G55H
VL: B1 VL with H24Q
notes: rabbit 24D9 VH G55H; chimeric, human constant regions
B37: MYT7895 (antibody, V domains shown)
VH: B1 VH with G54H
VL: B1 VL with H24Q
notes: rabbit 24D9 VH G54H; chimeric, human constant regions
B38: MYT7891 (antibody, V domains shown)
VH: B1 VH with C36H, C51S
VL: B1 VL with H24Q
notes: rabbit 24D9 VH C36H; chimeric, human constant regions
B39: MYT7904 (antibody, V domains shown)
VH: B1 VH with A63H
VL: B1 VL with H24Q
notes: rabbit 24D9 VH A63H; chimeric, human constant regions
B40: MYT7906 (antibody, V domains shown)
VH: B1 VH with W65H
VL: B1 VL with H24Q
notes: rabbit 24D9 VH W65H; chimeric, human constant regions
B41: MYT7894 (antibody, V domains shown)
VH: B1 VH with N53H
VL: B1 VL with H24Q
notes: rabbit 24D9 VH N53H; chimeric, human constant regions

What follows are binders tested against T1, Human LRRC15 Protein, His Tag (Acro Biosystems) (human, UniProt Q8TF66 22-538, limits assumed) (assay: BLI; dissociation pH 7.4 black, pH 5.4 grey [D00016 FIG. 3B]).
T1 construct: not shown: His tag
T1 sequence (looked up): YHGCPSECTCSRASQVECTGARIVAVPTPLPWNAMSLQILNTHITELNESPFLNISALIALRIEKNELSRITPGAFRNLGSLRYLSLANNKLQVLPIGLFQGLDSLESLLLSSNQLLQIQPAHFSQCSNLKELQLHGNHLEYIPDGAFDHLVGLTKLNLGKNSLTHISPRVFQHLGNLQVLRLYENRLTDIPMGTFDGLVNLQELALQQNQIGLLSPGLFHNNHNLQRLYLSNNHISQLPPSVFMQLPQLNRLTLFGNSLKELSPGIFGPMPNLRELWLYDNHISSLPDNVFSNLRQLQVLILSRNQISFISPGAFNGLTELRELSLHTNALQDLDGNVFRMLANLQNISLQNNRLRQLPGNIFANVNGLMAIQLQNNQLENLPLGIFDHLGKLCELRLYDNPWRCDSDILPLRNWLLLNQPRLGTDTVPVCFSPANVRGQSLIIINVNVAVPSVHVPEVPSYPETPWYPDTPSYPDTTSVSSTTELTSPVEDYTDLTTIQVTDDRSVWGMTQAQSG

Does B1 bind?
Result: binds

Does B2 bind?
Result: binds

Does B3 bind?
Result: binds

Does B4 bind?
Result: binds

Does B5 bind?
Result: binds

Does B6 bind?
Result: binds

Does B7 bind?
Result: binds

Does B8 bind?
Result: no binding (tested: 50 nM LRRC15)

Does B9 bind?
Result: no binding (tested: 50 nM LRRC15)

Each binder was assayed against T2, Human LRRC15 Protein, His Tag (Acro Biosystems) (human, UniProt Q8TF66 22-538, limits assumed) (assay: BLI; dissociation pH 7.4 black, pH 5.4 grey [1/2); D00013 FIG. 2B (1/2]).
T2 construct: Bought protein with His tag
T2 sequence (looked up): T1 sequence (looked up)

Does B10 bind?
Result: binds

Does B11 bind?
Result: binds

Does B12 bind?
Result: binds

Does B13 bind?
Result: binds

Does B14 bind?
Result: binds

Does B15 bind?
Result: binds

Does B16 bind?
Result: binds

Does B17 bind?
Result: no binding (tested: 50 nM LRRC15)

Does B18 bind?
Result: binds

Does B19 bind?
Result: binds

Does B20 bind?
Result: binds

Does B21 bind?
Result: binds

Does B22 bind?
Result: binds

Does B23 bind?
Result: binds

Does B24 bind?
Result: binds

Does B25 bind?
Result: binds

Does B26 bind?
Result: binds

Does B27 bind?
Result: binds

Does B28 bind?
Result: binds

Does B29 bind?
Result: binds

Does B30 bind?
Result: no binding (tested: 50 nM LRRC15)

Does B31 bind?
Result: binds

Does B32 bind?
Result: binds

Does B33 bind?
Result: binds

Does B34 bind?
Result: binds

Does B35 bind?
Result: binds

Does B36 bind?
Result: binds

Does B37 bind?
Result: binds

Does B38 bind?
Result: binds

Does B39 bind?
Result: binds

Does B40 bind?
Result: binds

Does B41 bind?
Result: binds
